Data on 18 molecules can be found in patent US20100310549A1 (Bristol-Myers Squibb, published 2010).

Numbering of substitutions follows the chain as printed. Names may count otherwise.

Broadly, the EC50 is the concentration that produces a half-maximal response. A high value points to a less potent agent. Usually Kd stands for a measure of binding affinity in units of concentration. Broadly, the koff is a measure of how fast the partners let go of each other. Lower therefore signals a long-lived complex. As usually defined, the kon is the rate constant with which the complex forms. The low end stands for slow association, the high end for fast association.

Experiment [1] deals with human KDR/EpoR fusion (phKE8) on Ba/F3-KDR cells (human, UniProt P35968 20-764; P19235 251-508, limits assumed). Briefly: cell-based or functional assay.
Experiment [2] has as its target T1, flk-1/EpoR fusion (pmKE2) on CHO-Flk or Ba/F3-Flk cells (mouse; human, UniProt P35918 20-762; P19235 251-508, limits assumed). Briefly: cell-based or functional assay.
Experiment [3] deals with T2, full-length human KDR on CHO-KDR cells (human, UniProt P35968 20-1356).
T2 construct: whole, on cells; stably transfected CHO-K1 cells
In words: flow cytometry on CHO-KDR cells, anti-His6 detection. How it is done: The functionality of KDR and Flk-1 binding molecules in a cell culture model system was evaluated with E. coli produced binding molecules.
Binding of fibronectin-based scaffold protein to cell-surface KDR and Flk-1 was analyzed simultaneously on VEGF-R2-expressing and control cells by flow cytometry. CHO-pcDNA3 cells (control) were released from their dishes with trypsin-EDTA, washed in Dulbecco's PBS without calcium and magnesium (D-PBS⁻; Invitrogen), and stained for 30 minutes at 37° C. with 1.5 μM CMTMR (5-(and-6)-(((4-chloromethyl)benzoyl)amino)-tetramethylrhodamine) (Molecular Probes). The cells were washed in D-PBS⁻ and incubated for a further 30 minutes at 37° C., and then resuspended in blocking buffer (D-PBS710% fetal bovine serum) on ice. CHO-KDR or CHO-Flk cells were treated identically except that CMTMR was omitted. 75,000 of CMTMR-stained CHO-pcDNA3 cells were mixed with an equal number of unstained CHO-KDR or CHO-Flk cells in each well of a V-bottom 96-well plate. All antibodies and fibronectin-based scaffold proteins were diluted in 25 μl/well of blocking buffer, and each treatment was conducted for 1 hour at 4° C. Cell mixtures were stained with His₆-tagged fibronectin-based scaffold proteins, washed twice with cold D-PBS⁻, and then treated with 2.5 μg/ml anti-His₆ MAb (R&D Systems), washed, and stained with 4 μg/ml Alexa Fluor 488-conjugated anti-mouse antibody (Molecular Probes). For cells treated with an anti-KDR mouse monoclonal antibody (Accurate Chemical, Westbury, N.Y.) or an anti-flk-1 goat polyclonal antibody (R&D Systems), the anti-His₆ step was omitted, and antibody binding was detected with the species-appropriate Alexa Fluor 488 conjugated secondary antibody (Molecular Probes). Following staining, cells were resuspended in 200 μl/well D-PBS⁻/1% FBS/1 μg/ml 7-aminoactinomycin D (7-AAD; Molecular Probes) and analyzed by flow cytometry on a FACSCalibur (Becton Dickinson, San Jose, Calif.) equipped with a […].
(In general: In flow cytometry, cells or beads pass a laser one at a time.)

Experiment [4] deals with VEGFR-2 (KDR) of HUVEC cells (human, UniProt P35968 20-1356). Briefly: cell-based or functional assay.
Experiment [5] deals with T3, human vascular endothelial growth factor receptor-2 Fc chimera (KDR-Fc) (human, UniProt P35968 20-764).
T3 construct: range 1-764; also called human VEGF-R2-Fc; not shown: human IgG1 Fc
In words: BIAcore, KDR-Fc immobilised on CM5 chip. As for the experimental part: (§1) The binding kinetics of fibronectin-based scaffold proteins binding proteins to the target was measured using BIAcore 2000 biosensor (Pharmacia Biosensor). Human and mouse VEGF-R2-Fc fusions were immobilized onto a CM5 sensor chip and soluble binding proteins were injected at concentrations ranging from 0 to 100 nM in buffer O (10 mM HEPES, 150 mM NaCl, 0.005% Tween 20, pH 7.4). Sensorgrams were obtained at each concentration and were evaluated using a program, BIA Evaluation 2.0 (BIAcore), to determine the rate constants […] The affinity constant, KD was calculated from the ratio of rate constants koff/kₒₙ.
In general terms: SPR reads the build-up and loss of mass on a sensor chip optically.

Experiment [6] has as its target T1, flk-1/EpoR fusion (pmKE2) on CHO-Flk or …. Briefly: flow cytometry on CHO-Flk cells, anti-His6 detection.
For experiment [7], the target named is T4, mouse vascular endothelial growth factor receptor-2 Fc chimera (Flk-1-Fc) (mouse, UniProt P35918 20-762).
T4 construct: bought from R&D Systems; also called mouse VEGF-R2-Fc; Fc part of the bought chimera not given, not described
In words: BIAcore, Flk-1-Fc immobilised on CM5 chip. As for the experimental part:
as §1

In experiment [8] the target is mouse vascular endothelial growth factor receptor-2 Fc chimera (Flk-1-Fc) (mouse) (UniProt P35918). In words: radioactive equilibrium binding.
Experiment [9] concerns the target T4, mouse vascular endothelial growth …. Briefly: radioactive equilibrium binding assay, 1 nM Flk-1-Fc, percent bound, average of 3 experiments.
Experiment [10] concerns the target T5, human vascular endothelial growth factor receptor-2 Fc chimera (KDR-Fc) (human, UniProt P35968 20-764).
T5 construct: range 1-764; also called human VEGF-R2-Fc; hKDR; not shown: human IgG1 Fc
Briefly: BIAcore, 20 nM KDR-Fc over immobilized VEGF165 in the presence of the soluble binder; blocked ligand VEGF165. How it is done: For inhibition experiments, human VEGF₁₆₅ was immobilized on a surface of CM-5 chip and KDR-Fc was injected at a concentration of 20 nM in the presence of different concentrations of soluble binding proteins ranging from 0 to 100 nM. IC₅₀ was determined at a concentration when only 50% of KDR-Fc binding to the chip was observed.

T4 sequence (P35918 20-762, change not shown): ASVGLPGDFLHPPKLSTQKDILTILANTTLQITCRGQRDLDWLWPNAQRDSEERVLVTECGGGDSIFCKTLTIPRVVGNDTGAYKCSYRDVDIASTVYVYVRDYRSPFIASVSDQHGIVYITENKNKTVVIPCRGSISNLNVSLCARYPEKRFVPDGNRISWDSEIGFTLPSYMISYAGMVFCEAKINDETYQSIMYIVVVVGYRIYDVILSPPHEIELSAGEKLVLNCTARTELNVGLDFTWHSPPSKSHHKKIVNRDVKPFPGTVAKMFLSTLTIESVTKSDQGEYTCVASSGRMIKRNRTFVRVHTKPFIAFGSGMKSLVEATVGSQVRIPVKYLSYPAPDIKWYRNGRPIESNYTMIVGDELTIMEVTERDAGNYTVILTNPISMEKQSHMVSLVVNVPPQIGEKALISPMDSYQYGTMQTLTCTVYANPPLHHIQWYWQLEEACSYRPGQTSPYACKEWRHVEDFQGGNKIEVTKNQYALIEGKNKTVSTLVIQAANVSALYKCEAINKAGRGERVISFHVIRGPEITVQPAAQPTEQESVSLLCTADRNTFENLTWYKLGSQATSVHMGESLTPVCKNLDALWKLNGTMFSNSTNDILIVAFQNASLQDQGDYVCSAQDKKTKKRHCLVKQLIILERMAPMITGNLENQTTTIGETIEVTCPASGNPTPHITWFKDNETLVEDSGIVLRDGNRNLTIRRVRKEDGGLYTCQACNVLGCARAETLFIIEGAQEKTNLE
Sequence of mouse vascular endothelial growth factor receptor-2 Fc chimera (Flk-1-Fc) (mouse) (P35918 20-762, change not shown): as above
T1 sequence (P35918 other isoform, or with tags, fused parts or gaps limits assumed, form in doubt): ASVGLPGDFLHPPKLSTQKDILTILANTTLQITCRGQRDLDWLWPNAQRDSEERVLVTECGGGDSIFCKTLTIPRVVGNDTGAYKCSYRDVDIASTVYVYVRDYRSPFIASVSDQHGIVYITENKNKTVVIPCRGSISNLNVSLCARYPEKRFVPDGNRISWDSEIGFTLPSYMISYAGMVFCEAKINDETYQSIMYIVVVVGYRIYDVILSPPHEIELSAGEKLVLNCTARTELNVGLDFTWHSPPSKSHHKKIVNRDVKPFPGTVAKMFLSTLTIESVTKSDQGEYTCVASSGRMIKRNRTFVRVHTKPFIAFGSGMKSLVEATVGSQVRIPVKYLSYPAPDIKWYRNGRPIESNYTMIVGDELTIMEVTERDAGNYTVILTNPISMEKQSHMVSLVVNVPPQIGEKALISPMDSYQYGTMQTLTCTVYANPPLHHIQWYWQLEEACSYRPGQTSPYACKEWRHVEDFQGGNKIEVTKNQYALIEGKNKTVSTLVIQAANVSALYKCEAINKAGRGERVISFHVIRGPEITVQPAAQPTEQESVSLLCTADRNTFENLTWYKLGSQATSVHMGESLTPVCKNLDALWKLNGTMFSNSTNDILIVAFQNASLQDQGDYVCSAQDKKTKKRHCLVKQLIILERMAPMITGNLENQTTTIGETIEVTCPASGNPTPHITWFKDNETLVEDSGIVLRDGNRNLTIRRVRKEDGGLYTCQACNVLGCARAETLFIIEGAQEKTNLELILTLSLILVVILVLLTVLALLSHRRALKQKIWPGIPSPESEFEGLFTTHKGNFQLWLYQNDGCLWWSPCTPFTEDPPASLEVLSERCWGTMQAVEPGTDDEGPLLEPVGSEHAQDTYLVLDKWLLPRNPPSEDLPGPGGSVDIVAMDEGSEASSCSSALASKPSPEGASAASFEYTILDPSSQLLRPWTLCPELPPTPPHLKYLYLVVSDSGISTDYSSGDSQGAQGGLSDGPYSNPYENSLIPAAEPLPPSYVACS

B1: E19, E. coli-expressed, His6 (designed binder)
chain: EVVAATPTSLLISWRHPHFPTRYYRITYGETGGNSPVQEFTVPLQPPTATISGLKPGVDYTITGYAVTVERNGRHLMTPISINYRTEIDKPSQHHHHHH
notes: soluble E. coli form; N-terminal residues added for expression not described
Take B1: in [1], the “Inhibition of VEGF-induced proliferation, Ba/F3-KDR (IC50, nM)” value (shortened to “Inhibition … Ba/F3-KDR (IC50, nM)”) worked out at 12.3 nM. In addition, the “Inhibition of VEGF-induced proliferation, Ba/F3-Flk (IC50, nM)” value (shortened to “Inhibition … Ba/F3-Flk (IC50, nM)”) in experiment [2] amounted to 5.8 nM. Besides, the values for the EC50 in experiment [3] and in experiment [6] were 7.6 nM and 5.3 nM, respectively. In addition, in [4], the “Inhibition of VEGF-induced proliferation of HUVEC cells (IC50, nM)” value (shortened to “Inhibition … of HUVEC cells (IC50, nM)”) was determined as 11.8 nM. Besides, the Kd in [5] was determined as 0.06 nM; in experiment [7] it was 0.34 nM. In addition, the figures for the koff in [5] and in [7] were 1.7e-05 s⁻¹ and 0.000223 s⁻¹, respectively. Moreover, the kon was found to be 300000 M⁻¹ s⁻¹ in experiment [5] and 660000 M⁻¹ s⁻¹ in experiment [7].

B2: E6, E. coli-expressed, His6 (designed binder)
chain: B1 chain with V69D, E70G, R71W, H75L, M77S, T78I
notes: as for B1
In [5], B2 registered a Kd of 0.08 nM, a koff of 6.7e-05 s⁻¹ and a kon of 890000 M⁻¹ s⁻¹. In experiment [7], the Kd is 2.02 nM, the koff is 0.00136 s⁻¹ and the association rate constant (kon) was 670000 M⁻¹ s⁻¹.

B3: E18, E. coli-expressed, His6 (designed binder)
chain: B1 chain with H75E, M77N
notes: as for B1
Turning to B3, the “Inhibition … Ba/F3-KDR (IC50, nM)” value in experiment [1] worked out at 5.4 nM. Further, in [2], the “Inhibition … Ba/F3-Flk (IC50, nM)” value stood at 2.4 nM. Besides, the response in [3] was half-maximal at 4.2 nM (EC50). Further, the “Inhibition … of HUVEC cells (IC50, nM)” value in experiment [4] came to 12.8 nM. Also, in experiment [5], the Kd came out at 0.46 nM, the koff is 0.000121 s⁻¹ and the kon was 260000 M⁻¹ s⁻¹. The molecule further showed a half-maximal effective concentration (EC50) in [6] of 0.9 nM. Also, in experiment [7], the Kd came to 0.33 nM, the koff turned out to be 0.000195 s⁻¹ and the kon came to 600000 M⁻¹ s⁻¹.

B4: E29, E. coli-expressed, His6 (designed binder)
chain: B1 chain with H75V
notes: as for B1
Consider B4, for which the “Inhibition … Ba/F3-KDR (IC50, nM)” value in experiment [1] came out at 10 nM. In addition, in experiment [2], the “Inhibition … Ba/F3-Flk (IC50, nM)” value came to 4.7 nM. A half-maximal response in experiment [3] (EC50) required 2.3 nM. Further, the “Inhibition … of HUVEC cells (IC50, nM)” value in experiment [4] stood at 8.4 nM. Further, in experiment [5], binding was characterised by a dissociation constant (Kd) of 0.19 nM, the koff was 7e-05 s⁻¹ and the kon came to 360000 M⁻¹ s⁻¹. Besides, a half-maximal response in [6] (EC50) required 0.6 nM. For the same molecule, in [7], the Kd turned out to be 0.37 nM, the koff was determined as 0.000288 s⁻¹ and the kon is 790000 M⁻¹ s⁻¹.

B5: M5FL, E. coli-expressed, His6 (designed binder)
chain: VSDVPRDLEVVAATPTSLLISWRHPHFPTRYYRITYGETGGNSPVQEFTVPLQPPLATISGLKPGVDYTITVYAVTKERNGRELFTPISINYRTEIDKPSQHHHHHH
notes: soluble E. coli form with Ser100
As to B5, the “Inhibition … Ba/F3-KDR (IC50, nM)” value in [1] was found to be 3.9 nM. For the same molecule, the “Inhibition … Ba/F3-Flk (IC50, nM)” value in experiment [2] came to 5.1 nM. The “Inhibition … of HUVEC cells (IC50, nM)” value in [4] was found to be 8.5 nM. In [5], this molecule showed a Kd of 0.89 nM, a koff of 9.2e-05 s⁻¹ and an on-rate (kon) of 100000 M⁻¹ s⁻¹. Further, in experiment [7], binding was characterised by a dissociation constant (Kd) of 2.1 nM, the koff came out at 0.000582 s⁻¹ and the kon was found to be 280000 M⁻¹ s⁻¹.

B6: VR28, E. coli-expressed, His6 (designed binder)
chain: B5 chain with L56T, V72G, K77V, E78A, R79Q, G81D, R82H, F85I
notes: soluble E. coli form; N-terminal Met not described
In experiment [5], B6 registered a Kd of 13 nM, a koff of 0.00034 s⁻¹ and a kon of 30000 M⁻¹ s⁻¹.

B7: EGE11 (FG loop …) (designed binder)
chain: EVVAATPTSLLISWRHPHFPTRYYRITYGETGGNSPVQEFTVPLQPPTATISGLKPGVDYTITGYAVTMGKNDRELLTPISINYRT
Take B7: the Binding to 1 nM Flk-1, % in experiment [8] was found to be 1%.

B8: F6 (designed binder)
chain: B7 chain with M69V, G70E, K71Q, D73G, E75V, L77M
Take B8: in [8], the Binding to 1 nM Flk-1, % is 2%.

B9: F10 (Table 2) (designed binder)
chain: B7 chain with G70A, K71P, D73G
For B9, in experiment [8], the Binding to 1 nM Flk-1, % is 1%.

B10: K9 (designed binder)
chain: B7 chain with M69F, K71L, N72Y, D73G, R74K, T78I
notes: Del 1-8; in vitro translated, Flag tag
B10: the binding result in [9] is listed as “no binding (tested: 1 nM Flk-1-Fc)”.

B11: K15 (designed binder)
chain: B7 chain with M69E, G70V, K71H, N72H, L76I, L77K
notes: as for B10
As for B11, the binding result in experiment [9] is on record as “no binding (tested: 1 nM Flk-1-Fc)”.

B12: K10 (designed binder)
chain: B7 chain with M69T, K71P, E75L, L77F, T78V
notes: as for B10
Turning to B12, the binding result in experiment [9] was “no binding (tested: 1 nM Flk-1-Fc)”.

B13: K13 (designed binder)
chain: B7 chain with M69L, G70A, K71L, N72K, D73G, R74H
notes: as for B10
In the case of B13, in [9], the binding result is “no binding (tested: 1 nM Flk-1-Fc)”.

B14: K12 (designed binder)
chain: B7 chain with M69D, G70V, K71Y, R74H, L76I, L77K
notes: as for B10
As to B14, the binding result in [9] was “no binding (tested: 1 nM Flk-1-Fc)”.

B15: K1 (designed binder)
chain: B7 chain with K71L, N72Y, D73G, R74H
notes: as for B10
Take B15: the binding result in experiment [9] is on record as “no binding (tested: 1 nM Flk-1-Fc)”.

B16: K14 (designed binder)
chain: B7 chain with M69R, G70E, K71E, R74H, T78I
notes: as for B10
As to B16, in experiment [9], the binding result is “no binding (tested: 1 nM Flk-1-Fc)”.

B17: K6 (designed binder)
chain: B7 chain with M69D, N72D, D73G, E75V
notes: as for B10
For the molecule B17, in [9], the binding result was “no binding (tested: 1 nM Flk-1-Fc)”.

B18: VR28 (designed binder)
chain: VSDVPRDLEVVAATPTSLLISWRHPHFPTRYYRITYGETGGNSPVQEFTVPLQPPTATISGLKPGVDYTITGYAVTVAQNDHELITPISINYRT
notes: 10Fn3 variant, WT N-terminus; also called VR28 (I69T)
With B18, the “IC50 (read off the curve)” value in experiment [10] is around 20 nM.
